Laboratory results: patent publication US10428140B2, “Anti-EphA4 antibody” (EISAI R&D MANAGEMENT CO., LTD., priority 2015, dated 2019)

T1: human EphA10 (Homo sapiens, UniProt Q5JZY3)
T1 construct: a protein of the extracellular region of each human Eph receptor fused with the SEAP protein and the His tag; made in house; host or cells: Expi293F cells (culture supernatant)
T1 sequence (Q5JZY3 34-565 limits assumed): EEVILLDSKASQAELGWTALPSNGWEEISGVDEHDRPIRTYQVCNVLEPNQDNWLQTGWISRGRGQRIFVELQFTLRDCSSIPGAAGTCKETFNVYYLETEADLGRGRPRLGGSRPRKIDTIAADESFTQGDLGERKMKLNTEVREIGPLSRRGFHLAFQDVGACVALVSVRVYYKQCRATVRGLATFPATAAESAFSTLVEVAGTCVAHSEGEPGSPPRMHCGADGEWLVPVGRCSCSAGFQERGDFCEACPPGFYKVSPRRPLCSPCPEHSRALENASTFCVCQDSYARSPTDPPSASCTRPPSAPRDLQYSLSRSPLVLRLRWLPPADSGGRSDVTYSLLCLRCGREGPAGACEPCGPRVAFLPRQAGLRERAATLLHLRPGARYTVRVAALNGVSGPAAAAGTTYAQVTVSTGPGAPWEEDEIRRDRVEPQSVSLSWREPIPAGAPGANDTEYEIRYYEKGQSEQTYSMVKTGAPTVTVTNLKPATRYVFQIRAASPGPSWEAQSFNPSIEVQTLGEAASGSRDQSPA

T2: human EphB3 (Homo sapiens, UniProt P54753)
T2 construct: a protein of the extracellular region of each human Eph receptor fused with the SEAP protein and the His tag; made in house; host or cells: Expi293F cells
T2 sequence (P54753 34-559 limits assumed): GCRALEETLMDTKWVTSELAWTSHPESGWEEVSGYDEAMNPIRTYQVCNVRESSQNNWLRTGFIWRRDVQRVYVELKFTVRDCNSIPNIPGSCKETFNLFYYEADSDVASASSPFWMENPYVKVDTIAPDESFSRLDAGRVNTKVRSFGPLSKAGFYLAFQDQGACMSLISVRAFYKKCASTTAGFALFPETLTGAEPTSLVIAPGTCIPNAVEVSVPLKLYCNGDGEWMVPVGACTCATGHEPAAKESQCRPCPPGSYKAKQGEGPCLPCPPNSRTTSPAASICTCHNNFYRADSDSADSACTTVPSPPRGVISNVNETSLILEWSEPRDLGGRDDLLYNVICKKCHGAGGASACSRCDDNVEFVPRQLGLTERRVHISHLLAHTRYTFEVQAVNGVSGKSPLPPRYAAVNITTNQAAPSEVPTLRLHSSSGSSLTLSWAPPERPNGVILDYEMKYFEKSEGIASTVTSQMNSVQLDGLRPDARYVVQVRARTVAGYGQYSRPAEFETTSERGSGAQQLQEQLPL


Key:
Assay in all cases: Selectivity ELISA of humanized antibodies for human Eph receptor
Assay type in all cases: binding
Settings in all cases: coated protein 1 nM
human EphA10 = target: T1, human EphA10
Procedure, shortened: (§1)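 Extracellular domains of human Eph receptors fused to SEAP-His were expressed in Expi293F cells for 5 days and captured from supernatant (1 nM final) on anti-His-coated plates. Humanized anti-EphA4 antibodies were incubated 1 h at room temperature, then HRP anti-IgG secondary, TMB substrate, and absorbance at 450 nm.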

SEAP-His = SEAP-His (Homo sapiens, UniProt P05187)
Chain of SEAP-His (P05187 23-511 limits assumed): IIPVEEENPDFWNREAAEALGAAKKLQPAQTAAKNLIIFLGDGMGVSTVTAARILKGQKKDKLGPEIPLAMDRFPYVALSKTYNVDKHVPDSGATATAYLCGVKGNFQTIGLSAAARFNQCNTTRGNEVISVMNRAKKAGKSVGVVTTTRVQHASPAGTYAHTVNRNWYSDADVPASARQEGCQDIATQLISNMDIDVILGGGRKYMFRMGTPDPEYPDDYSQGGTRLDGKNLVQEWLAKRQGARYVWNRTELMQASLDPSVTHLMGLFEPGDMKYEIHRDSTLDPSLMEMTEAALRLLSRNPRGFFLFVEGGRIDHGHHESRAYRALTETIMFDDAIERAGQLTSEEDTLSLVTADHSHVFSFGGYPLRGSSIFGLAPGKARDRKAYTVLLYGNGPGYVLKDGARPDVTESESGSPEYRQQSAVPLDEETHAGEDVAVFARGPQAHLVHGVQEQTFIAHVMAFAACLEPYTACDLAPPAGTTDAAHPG
Procedure, shortened: as §1

human EphB3 = target: T2, human EphB3
Procedure, shortened: as §1

hEphA10-SEAP-: absorbance at 450 nm, percentage with respect to hEphA4-SEAP-His as 100% (human EphA10) [%] | SEAP-His: absorbance at 450 nm, percentage with respect to hEphA4-SEAP-His as 100% (SEAP-His) [%] | hEphB3-SEAP-: absorbance at 450 nm, percentage with respect to hEphA4-SEAP-His as 100% (human EphB3) [%] | Molecule
5.2 | 5.3 | 5.2 | 78 (antibody, V domains shown, synthetic humanized antibody heavy chain variable region sequence; synthetic humanized antibody light chain variable region sequence) VH: QVQLVQSGSELKKPGASVKVSCKASGYTFTDYSMHWVRQAPGQGLKWMGWINTETGEPTYADDFKGRFVFSLDTSVSTAYLQISSLKAEDTAVYYCARIPLYYYGSRYWYFDVWGQGTTVTVSS VL: DIQMTQSPSSLSASVGDRVTITCRASENIYRNLAWYQQKPGKAPKLLVYAATNLADGVPSRFSGSGSGTDYTLTISSLQPEDFATYYCQHFWGTPWTFGQGTKVEIK
5.3 | 5.4 | 5.6 | 156 (antibody, V domains shown, synthetic humanized antibody heavy chain variable region sequence; synthetic humanized antibody light chain variable region sequence) VH: QIQLVQSGSELKKPGASVKVSCKASGYTFTDYSMHWVRQAPGQGLKWMGWINTETGEPTYAQGFTGRFVFSLDTSVSTAYLQISSLKAEDTAVYYCARIPLYYYGSRYWYFDVWGQGTTVTVSS VL: DIQMTQSPSSLSASVGDRVTITCRASENIYRNLAWYQQKPGKAPQLLLYAATNLADGVPSRFSGSGSGTDYTLTISSLQPEDFATYYCQHFWGTPWTFGQGTKVEIK
5.2 | 5.2 | 5.5 | 136 (antibody, V domains shown, synthetic humanized antibody heavy chain variable region sequence; synthetic humanized antibody light chain variable region sequence) VH: QVQLVQSGSELKKPGASVKVSCKASGYTFTDYSMHWVRQAPGQGLKWMGWINTETGEPTYADDFKGRFVFSLDTSVSTAYLQISSLKAEDTAVYYCARIPLYYYGSRYWYFDVWGQGTTVTVSS VL: EIVMTQSPATLSVSPGERATLSCRASENIYRNLAWYQQKPGQSPRLLIYAATNLADGIPARFSGSGSGTEYTLTISSLQSEDFAVYYCQHFWGTPWTFGQGTKVEIK
